Measured values published in patent US20140371148A1 (AMYLIN PHARMACEUTICALS, published 2014).
Starred links: 1 amine or outer side, 2 acyl side, 3 side chain; linkers in the order of their positions; H or OH if unused. Groups on a side chain read outwards from the residue. No end group written: not given here. 2‑(S)‑cyano pyrrolidyl = 2-(S)-cyano pyrrolidyl group; γGlu = O=C(O)[C@H](CCC(=O)[*:2])N[*:1]; AEEA = NCCOCCOCC(=O)O

T1: endogenously expressed GLP-1 receptor of thyroid c-cell carcinoma line 6-23 (UniProt P32301 22-463)
T1 sequence (looked up): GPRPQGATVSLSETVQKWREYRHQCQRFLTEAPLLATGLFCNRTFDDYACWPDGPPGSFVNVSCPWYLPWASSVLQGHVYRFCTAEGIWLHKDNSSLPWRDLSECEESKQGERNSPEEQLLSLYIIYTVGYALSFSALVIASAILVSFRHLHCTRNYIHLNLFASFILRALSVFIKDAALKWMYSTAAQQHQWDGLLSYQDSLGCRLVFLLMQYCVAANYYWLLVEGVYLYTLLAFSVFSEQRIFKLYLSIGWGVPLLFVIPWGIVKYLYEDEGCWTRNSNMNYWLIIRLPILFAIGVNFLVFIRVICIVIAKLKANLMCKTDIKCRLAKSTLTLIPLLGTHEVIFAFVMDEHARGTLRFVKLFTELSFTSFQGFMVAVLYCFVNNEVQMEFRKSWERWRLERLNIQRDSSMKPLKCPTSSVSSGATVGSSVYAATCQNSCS


These binders were tested against T1, endogenously expressed GLP-1 receptor … (assay: cell-based or functional assay).
HAEGTFTSDVSSYLEGQAAKEFIAWLVKGRG (lisinopril joined at the C-terminus through linker type C9 of FIG. 2) [5547] was tested, and the “GLP Cyclase EC50” value was 0.4 nM.

Each binder was assayed against Recombinant DPP-IV (assay: cell-based or functional assay).
For YAEGTFISDYSIAMDKIHQQDFVNWLLAQK([AEEA-γGlu-2‑(S)‑cyano pyrrolidyl]) [Lys^30 N-ε-(Ado-(γ-L-Glu-2-(S)-cyano pyrrolidyl)) GIP(1-30)], the “DPP-IV IC50” value was 49 nM. With YAEGTFISDYSIALDKIHQQDFVNWLLAQK-{AEEA-Lys(N-ε-(2-(S)-cyano pyrrolidyl))} [[Leu^14] GIP(1-30)-Ado-Lys-N-ε-(2-(S)-cyano pyrrolidyl)] the “DPP-IV IC50” value was 109 nM. YAEGTFISDYSIAMDKIHQQDFVNWLLAQK (C-terminus extended with Ado-Lys-N-ε-(2-(S)-cyano pyrrolidyl)) [GIP(1-30)-Ado-Lys-N-ε-(2-(S)-cyano pyrrolidyl)] was tested, and the “DPP-IV IC50” value was 98 nM. With YAEGTFISDYSIAMDKIHQQDFVNWLLAQK (C-terminus extended with Ado-Ado-Lys-N-ε-(2-(S)-cyano pyrrolidyl)) [GIP(1-30)-Ado-Ado-Lys-N-ε-(2-(S)-cyano pyrrolidyl)] the “DPP-IV IC50” value was 114 nM. For YAEGTFISDYSIAMDKIHQQDFVNWLLAQK (N-terminus acylated with γ-L-Glu-(2-(S)-cyano pyrrolidyl)-Ado-Ado) [N-(γ-L-Glu-2-(S)-cyano pyrrolidyl)-Ado-Ado) GIP(1-30)], the “DPP-IV IC50” value was 64 nM.
